Biological target: T1, cpHaloΔ9mer
T1 construct: also called cpHalo_9mer; cpHalo156-141
Assay: ITC; 9mer peptide (~30 mM) titrated into 0.6 mM cpHaloΔ9mer; three independent measurements; one-site model
Method: Heat of dilution of the peptide was subtracted prior to the analysis. Kd was calculated from three independent measurements, error represents standard deviation.
This maximal concentration of peptide was titrated against a 0.6 mM cpHaloΔ9mer (FIG. 1).

T1 sequence (chain, as listed by the source mutant): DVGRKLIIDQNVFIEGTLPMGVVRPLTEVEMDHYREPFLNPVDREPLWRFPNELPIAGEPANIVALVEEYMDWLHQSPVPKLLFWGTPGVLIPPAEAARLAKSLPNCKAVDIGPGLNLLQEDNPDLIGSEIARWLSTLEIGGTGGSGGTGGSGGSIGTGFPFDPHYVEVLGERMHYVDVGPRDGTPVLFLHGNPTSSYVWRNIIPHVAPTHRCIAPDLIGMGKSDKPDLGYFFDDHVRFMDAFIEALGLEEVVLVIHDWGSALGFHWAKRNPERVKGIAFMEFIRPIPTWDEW

B1: 9mer peptide (peptide)
peptide: ARETFQAFR
notes: Free peptide titrated in the ITC assay; also called PEP1
- Kd: 5.3 mM
